# Laboratory results reported in article PMC5455435, “Fibrin Hydrogel Based Bone Substitute Tethered with BMP-2 and BMP-2/7 Heterodimers” (Materials, 2015).
# T1: BMP-7 (human, UniProt P18075 293-431)
# T1 construct: Non-glycosylated (made in E. coli); also called BMP-7 monomer; BMP-7 chain of TG-BMP-2/BMP-7
# T1 sequence (looked up): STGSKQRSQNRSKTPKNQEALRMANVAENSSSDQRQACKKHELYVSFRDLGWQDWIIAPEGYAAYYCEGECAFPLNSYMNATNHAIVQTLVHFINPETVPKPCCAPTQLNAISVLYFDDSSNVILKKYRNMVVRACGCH
# Key:
# [1] = target: the molecule itself; experiment: SEC; purified monomers refolded at 4 °C in 50 mM Tris pH 8.5, 1 M NaCl, 5 mM EDTA, 2% CHAPS, 2 mM reduced and 1 mM oxidized glutathione; after reverse phase chromatography the dimer was isolated on a HiLoad Superdex 75 column
# BMP-7 = target: T1, BMP-7; experiment: non-reduced Western blot with two-colour infrared detection; TG-BMP-2 and BMP-7 monomers combined in equimolar amounts and refolded together, heterodimer purified by heparin affinity, size exclusion and reverse phase chromatography; non-reduced blot probed with anti-BMP-2/4 (700 nm) and anti-BMP-7 (800 nm); overlapping bands indicate the heterodimer; conditions: both partners purified
binding result (BMP-7),Binder,binding result [1]
–,"BMP-2 (ligand, human, UniProt P12643 283-396, looked up, bone morphogenetic protein 2 (BMP-2), human, active BMP-2 protein only; also called BMP-2 homodimer; regular BMP-2 without the TG site) QAKHKQRKRLKSSCKRHPLYVDFSDVGWNDWIVAPPGYHAFYCHGECPFPLADHLNSTNHAIVQTLVNSVNSKIPKACCVPTELSAISMLYLDENEKVVLKNYQDMVVEGCGCR",binds
binds,"TG-BMP-2 (ligand, human, One chain is written; also called engineered BMP-2; TG-BMP-2 monomer) MNQEQVSPLPVELPLIKMKPHQAKHKQRKRLKSSCKRHPLYVDFSDVGWNDWIVAPPGYHAFYCHGECPFPLADHLNSTNHAIVQTLVNSVNSKIPKACCVPTELSAISMLYLDENEKVVLKNYQDMVVEGCGCR",binds
